Experimental data from patent US20170089914A1 (Merck Sharp & Dohme, published 2017).

molecular target: pembrolizumab F(ab')2 protein; test: SPR (BIAcore T200), Fab-SASA captured on BSA chip, pembrolizumab F(ab')2 as analyte, 1:1 fit
Sequence (chain, as listed by the source, chain 1 of 2): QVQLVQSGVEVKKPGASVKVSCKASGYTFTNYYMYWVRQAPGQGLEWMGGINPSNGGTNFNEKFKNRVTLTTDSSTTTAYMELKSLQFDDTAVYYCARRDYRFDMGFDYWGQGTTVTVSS
Sequence (chain, as listed by the source, chain 2 of 2): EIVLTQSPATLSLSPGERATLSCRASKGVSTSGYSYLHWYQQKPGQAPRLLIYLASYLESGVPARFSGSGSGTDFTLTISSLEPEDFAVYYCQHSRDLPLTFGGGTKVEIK

| Binder | koff |
| --- | --- |
| A30514 Fab antibody (Fab-SASA secreted to culture medium) (Fab, V domains shown, Rabbit variable domains from a Fab phage library; Tested as Fab-SASA expressed from the pFASEBA vector and captured on BSA via SASA) VH: QEQLVESGGRLVTPGTPLTLTCTASGFSLGSDFMSWVRQAPGKGLEWIGYIDPRSDIPYYASWAKGRFTISKTSTTVDLKITSPTTEDTATYFCARDLNAGYFNGIFYIWGPGTLVTVSS VL: ELVMTQTPSSVSAAVGDTVTINCQASETVATLLAWYQQKPGQPPKLLIYGASNLESGVPSRFRGSGSGTEFTLTISGMKAEDAATYYCQYGYISTGSNTFGAGTNVEIK | 6.5e-05 s⁻¹ |
| A30523 Fab antibody (Fab-SASA secreted to culture medium) (Fab, V domains shown, Rabbit variable domains from a Fab phage library; Tested as Fab-SASA expressed from the pFASEBA vector and captured on BSA via SASA) VH: QEQLVESGGRLVTPGTPLTLTCTASGFSLGSDFMSWVRQAPGKGLEWIGYIDPRSDIPYYASWAKGRFTISKTSTTVDLKITSPTTEDTATYFCARDLNAGYFNGIFYIWGPGTLVTVSS VL: ELDMTQTPSSTSEPVGGTVTINCQASQTISSYLSWYQQKPGHPPKLLIYDASDLASGVPSRFSGSRSGTQFTLTISGVQCDDAATYYCLGVYDYRSDDGAAFGGGTELEIL | 0.00034 s⁻¹ |
| A30633 Fab antibody (Fab-SASA secreted to culture medium) (Fab, V domains shown, Rabbit variable domains from a Fab phage library; Tested as Fab-SASA expressed from the pFASEBA vector and captured on BSA via SASA) VH: QSLEESGGRLVTPGTPLTLTCTVSGFSLSTNDMNWVRQAPGKGLEWIGVIYSDDTPDYATWAKGRFTISRTSTTVDLKITSPTTEDTATYFCARGHYDSAVYAYALNIWGPGTLVTVSS VL: ELVMTQTPSSVSAAVGGTVTITCQASQSLSNLLAWYQQKPGQPPKLLIYGASNLESGVPSRFRGSGSGTDFTLTISGMKAEDAATYYCQGGHYSGLTFGNGTNVEIK | 0.0012 s⁻¹ |
